{
  "source": "patent US20120073987A1",
  "about": "“ELECT[…] AND APPARATUS OF IDENTIFYING THE PRESENCE OF A TARGET” (priority 2009, published 2012)",
  "key": {"[1]": {"target": "T1, HIV-1 reverse transcriptase (Human immunodeficiency virus type 1 group M subtype B, UniProt P04585)", "T1 construct": "HIV-1 reverse transcriptase (200 U, T3610Y, RT) was purchased from GE Healthcare; purchased GE Healthcare T3610Y", "experiment": "Cyclic voltammetry detection of HIV-1 RT binding on peptide-RT-modified Thc-Fc Au microelectrodes", "experimental": "(§1) Au microelectrodes were incubated in 1 mM ethanolic solution of Thc-Fc overnight (˜15 h). The electrodes were rinsed with ethanol and Millipore water (18.2 MΩ.cm). This layer was terminated by the amino-reactive carboxyl moieties that allowed the attachment of the peptides. The carboxyl groups were activated with 2 mM EDC and 5 mM NHS in 50 mM phosphate buffer solution (pH 7.4) for 2 h. The N-terminus of the peptides was attached to the activated carboxyl groups of Thc-Fc to give the final electrode interface. The peptides (1 mM) were incubated with the activated electrodes in 50 mM phosphate buffer solution (pH 7.4) for 2 h on a block-shaker at room temperature. Thus, the peptides were conjugated with the Fc compounds on the surface. The remaining active-esters were quenched by incubating the peptide-modified electrodes in 100 mM ethanolamine solution for 1 h on a block-shaker at room temperature. The peptide-modified electrodes were then incubated in 1 mM hexanethiol solution for 5 min to produce a diluted film and to back-fill the empty spots on the electrode surface. Finally, the electrodes were rinsed with ethanol and Millipore water to give the peptide-modified sensor surfaces. […]"}, "HIV-1 integrase": {"target": "T2, HIV-1 integrase (Human immunodeficiency virus type 1 group M subtype B, UniProt P04585)", "T2 construct": "HIV integrase (100 μg, HIV-122, IN) was purchased from ProspecBio (USA); purchased ProspecBio HIV-122", "experiment": "Cyclic voltammetry detection of HIV-1 IN binding on peptide-IN-modified Thc-Fc Au microelectrodes", "experimental": "as §1"}, "[2]": {"details": "100 nM protein solution, n=3 electrodes, FIG. 7"}},
  "data": [
    {"sequence": "VEAIIRILQQLLFIH [peptide-RT, purchased peptide ligand for HIV-1 RT, immobilised on ferrocene-modified gold electrode]", "values": [
      {"measurement": "electrochemical response to exposure to HIV-1 RT (selectivity)", "setting": "[1]; [2]", "result": "responded to the exposure of HIV-1 RT"},
      {"measurement": "detection limit for HIV-1 RT", "setting": "[1]; estimated from 3(Sb/m), CV at 100 mV s^-1 in 2 M NaClO4, 1 h incubation in RT assay buffer pH 7.2", "result": 20, "unit": "nM"}
    ]},
    {"sequence": "YQLLIRMIYKNI [peptide-IN, purchased peptide ligand for HIV-1 IN, immobilised on ferrocene-modified gold electrode]", "values": [
      {"measurement": "electrochemical response to exposure to HIV-1 IN (selectivity)", "setting": "HIV-1 integrase; [2]", "result": "responded to the exposure of HIV-1 IN"},
      {"measurement": "detection limit for HIV-1 IN", "setting": "HIV-1 integrase; CV at 100 mV s^-1 in 2 M NaClO4, IN assay buffer pH 7.5", "result": 20, "unit": "nM"}
    ]}
  ]
}
